Laboratory results reported in PMC6430831.

How the values were obtained:
IKKε = IKKε (UniProt Q14164); assay: anti-GEF-H1 co-IP, IKKε blot; conditions: sites S886
IRF5 = IRF5 (UniProt Q13568); assay: anti-GEF-H1 co-IP, IRF5 blot; conditions: reference: wild type; sites S886

GEF-H1 (from UniProt Q92974) S399A/S886A
binding against the reference (IKKε; reference: S399A): gained

GEF-H1 (from UniProt Q92974) S324A/S886A
binding against the reference (IKKε; reference: S324A): stronger

GEF-H1 (from UniProt Q92974) S886A
binding against the reference (IRF5): stronger | binding against the reference (IKKε; reference: wild type): stronger
